From PMC5018835

Assays:
[1] = molecular target: Hsp82p:Hsp82p^LL heterodimer (S. cerevisiae), P02829
[2] = molecular target: Hsp82p:Hsp82p^V391E/LL heterodimer (S. cerevisiae), P02829

| inhibition of the ATPase activity of Hsp82p:Hsp82p^LL heterodimers (1 μM + 5 μM) by titrated Hch1p (~16% at 2.5 μM, ~11% at 5 μM, overcome at higher concentrations; Fig. 2C) [1] | apparent affinity (Kapp) from the fit of ATPase stimulation of Hsp82p:Hsp82p^V391E/LL heterodimers (1 μM + 5 μM) against Aha1p concentration (Fig. 3E) [2] | Binder |
| --- | --- | --- |
| 16% |  | Hch1p (N-terminal 6xHis tag), P53834 1-153 (natural protein) MVVLNPNNWHWVDKNTLPWSKDYLNGKLTSLSTVSSDGKSKIELTQVSSITGDSNVSQRKGKPICYFDLQLSMNVKVTNLDTNKDDEDDDGILADGKLEIPEFMHDESDIPILSQGFDAFDGLVRSEFVPKVVETLLKYQDDLIKEHSKDIQV |
|  | 0.8 µM | Aha1p (full length, N-terminal 6xHis tag), Q12449 1-350 (natural protein) MVVNNPNNWHWVDKNCIGWAKEYFKQKLVGVEAGSVKDKKYAKIKSVSSIEGDCEVNQRKGKVISLFDLKITVLIEGHVDSKDGSALPFEGSINVPEVAFDSEASSYQFDISIFKETSELSEAKPLIRSELLPKLRQIFQQFGKDLLATHGNDIQVPESQVKSNYTRGNQKSSFTEIKDSASKPKKNALPSSTSTSAPVSSTNKVPQNGSGNSTSIYLEPTFNVPSSELYETFLDKQRILAWTRSAQFFNSGPKLETKEKFELFGGNVISELVSCEKDKKLVFHWKLKDWSAPFNSTIEMTFHESQEFHETKLQVKWTGIPVGEEDRVRANFEEYYVRSIKLTFGFGAVL |
